Data: the nanobody polyreactivity screen of Harvey et al. (2022)

experiment: yeast display, Sf9 membrane polyspecificity reagent, FACS + sequencing; frameworks hold sequencing errors
How it was run: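 Genes from sorted yeast were amplified by colony PCR, read by MiSeq 2 × 250 sequencing and filtered on CDR length. These cells carried a synthetic nanobody library in Saccharomyces cerevisiae BJ5465 and were sorted by FACS into low and high (top ~1%) gates on anti-HA and streptavidin fluorescence. Polyreactivity is labelled according to the gate of origin.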

Sequence | polyreactivity (PSR sort gate)
QVQLVESGGGLVQAGGSLRLSCAASGITFDYYAMGWYRQSPGKERELVAAISYSAGSTYYADSVKGRFTISRDNAKNTVYLQMNSLKPEDTAVYYCAAETFTISSDYYYWGQGTQVTVSS | low polyreactivity
QVQLVESGGGLVQAGGSLRLSCAASGITFDYYDMGWYRQAPGKERELVATITSDGSTYYADSVKGRFTISRDNAKNTVYLQMNSLKPEDTAVYYCNARRRTVPYRYDYWGQGTQVTVSS | high polyreactivity
QVQLVESGGGLVQAGGSLRLSCAASGITFDYYGMGWYRQAPGKERELFASITSGGSTNYADSVKGRFTISRDNAKNTVYLQMNSLKPEDTAVYYCNAEFWEVSPDPRDYDYWGQGTQVTVSS | low polyreactivity
QVQLVESGGGLVQAGGSLRLSCAASGITFDYYSMGWYRQAPGTERELVAAISWGGGSTYYADSVKGRFTISRDNAKNTVYLQMNSLKPEDTAVYYCAADIVSSPSSYVPPGDYWGQGTQVTVSS | low polyreactivity
QVQLVESGGGLVQAGGSLRLSCAASGITFDYYVMGWYRQAPGKERELVAAISWSGGTTYYADSVKGRFTISRDYAKNTVYLQMNSLKPEDTAVYYCNAEHTGSFYGGYPWEMEYWGQGTQVTVSS | low polyreactivity
QVQLVESGGGLVQAGGSLRLSCAASGITFEANTMGWYRQAPAKERELVAVITDTGSTNYADSVKGRFTISRDNAKNTVYLQMNSLKPEDTAVFYCKADAEPSSGTSAKNDYWGQGTQVSVSS | low polyreactivity
QVQLVESGGGLVQAGGSLRLSCAASGITFEGYALGWYRQAPGKERELVAAIRSSGTSTYYADSVKGRFTISRDIAKNTVYLQMNSLKPEDTAVYYCNRARSSSRYDYWGQGTQVTVSS | low polyreactivity
QVQLVESGGGLVQAGGSLRLSCAASGITFEPYDMGWYRQAPGKERELVAAISTTGGRTYYADSVKGRFTISRDNAKNTVYLQMNSLKPEDTAVYYCAARYTTRRRYDYWGQGTQVTVSS | high polyreactivity
QVQLVESGGGLVQAGGSLRLSCAASGITFESNAMGWYRQAPGKEREFVAAISYDGGDTYYADSVKGRFTISRDNAKNTVYLQMNSLKPEDTAVYYCAAEPGWTMDYWGQGTQVTVSS | low polyreactivity
QVQLVESGGGLVQAGGSLRLSCAASGITFEVYAMGWYRQAPGKERELVAVITSVGSTNYADSVKGRFTISRDNAKNTVYLQMNSLKPEDTAVYYCASEKWTVRRFNPYTYYRYDYWGQGTQVTVSS | low polyreactivity
QVQLVESGGGLVQAGGSLRLSCAASGITFFDYAMGWYRQAPGKERELVAAIDLSDGRTYYADSVKGRFTISRDNAKNTVYLQMNSLKPEDTAVYYCARQHEDYGYYWYYWYDYDYWGQGTQVTVSS | low polyreactivity
QVQLVESGGGLVQAGGSLRLSCAASGITFFENAMGWYRQAPGKERELVAASSYSGGSTYYADSVKGRFTISRDNAKNTVYLQMYRLKPEDTAVYSCAADWYNFLYIRNRWGYGYWGQGSQVTVSS | high polyreactivity
QVQLVESGGGLVQAGGSLRLSCAASGITFFFNAMGWYRQAPGKERELVAAITSGAGSTYYADSVKGRFTISRDNAKITVYLQMNSLKPEDTAVYYCASEWSYGGMDYWGQGTQVNVSS | low polyreactivity
QVQLVESGGGLVQAGGSLRLSCAASGITFFGYAMGWYREAPGKERELVAGISRSTGRTYYADSVKGRFTISRDNAKNTVYLQMNILKPEDTAVYYCAARATRSLSRYMDYWGQGTQVTVSS | high polyreactivity
QVQLVESGGGLVQAGGSLRLSCAASGITFFLYAMGWYRQAPGKERELVAVISASGGSTYYADSVKGRFTISRDNAKNTVYLQMNSLKPEDTAVYYCAAGYRFYGFYALYYWGQGTQVTVSS | high polyreactivity
QVQLVESGGGLVQAGGSLRLSCAASGITFFPYAMGWYIQAPGKERELVADITWRGGRTYYADSVKGRFTISRDNAKNTVYLQMNSLKPEDTAVYYCAKVARQNWFRYNYDYWGQGTQVTVSS | high polyreactivity
QVQLVESGGGLVQAGGSLRLSCAASGITFGANAMGWYRQAPGKERELVAHITWSGGDTYYADSVKGRFTISRDNAKNTVYLQMNSLKPEDTAVYYCNALQPGLGSPLGEYDYWGQGTQVTVSS | low polyreactivity
QVQLVESGGGLVQAGGSLRLSCAASGITFGGYAMGWYRKAPGKERELVAAITSSGGITYYADSVKGRFTISRDNAKKTVYLLLNSLKPEDTAVYYCAKVPLEIVTIRDDEDYWGQGTQVTVSS | low polyreactivity
QVQLVESGGGLVQAGGSLRLSCAASGITFGKYAMGWYRQAPGKERELVAAISWSGGSTYYADSVKGRFTISRDNAKNTVYLQMNSLKPEDTAVYYCAASYPYRRGEFYYYRSSDDDYWGQGTQVTVSS | high polyreactivity
QVQLVESGGGLVQAGGSLRLSCAASGITFGPNAMGWYRQAPGKERELVAAISWRGGSTYYADSVKGRFTISRDNAKNTVYLQMNSLKPEDTAVYYCAKVQIPASYIRYDYWGQGTQVTLSS | low polyreactivity
QVQLVESGGGLVQAGGSLRLSCAASGITFGRKTMGWYRQAPGKERELVAAIDSGGNTYADSVKGRFTISRDNAKNTVYLQMNSLKPEDTAVYYCAVDGGVFSSYGYWGQGTLVTVSS | low polyreactivity
QVQLVESGGGLVQAGGSLRLSCAASGITFGRNTMGWYRQAPGKERELVAAIDSGGNTYADSVKGRFTISRDNAKNTVYLQMNSLKPEDSAVYYCAVDGGEFSSYGYWGQGTQVTVSS | low polyreactivity

Sequence | polyreactivity (PSR sort gate)
QVQLVESGGGLVQAGGSLRLSCAASGITFGSYAMGWYRQAPGKERELVAAINSRGSRTYYADSVKVRFTISRDNAKNTVYLQMNSLKPEDTAVYYCAASNSHVGPNDYWGQGTQVTVSS | high polyreactivity
QVQLVESGGGLVQAGGSLRLSCAASGITFGVYARGWYRQAPGKEREFVADIDRTRGSTYADSVKGRFTISRDNAMNTVYLQMNSLKPEDTAVYYCAAGWGFRFYYWYWGQGTHVTVSS | high polyreactivity
QVQLVESGGGLVQAGGSLRLSCAASGITFGWYAMGWYRQAPGKERELVAAITWDGGSTYYADSVKGRFTFSRDNAKNTVYLQMNSLKPEDTAVYYCAAEYIYYYYLVARDYWGQGTQVTVSS | high polyreactivity
QVQLVESGGGLVQAGGSLRLSCAASGITFGYNAMGWYRQAPGKERELVAAISWRVGSTSYADSVKGRFTISRDNAKNTVYLQMNSLKPEDTAVYYCAAVRYNYNFKMYYWGQGTQVTVSS | high polyreactivity
QVQLVESGGGLVQAGGSLRLSCAASGITFGYNTMGWYRQAPGKERELVAAISGSGGRTYYADSLKGRFTISRDNSKNTVYLQMNSLKPEDTAVYYCAARWPIWSSLYDYWGQGTQVTVSS | high polyreactivity
QVQLVESGGGLVQAGGSLRLSCAASGITFGYYAMGWYRQAHGKERELVAAITYSGGSTYYADSVKGRFTISRDNAKNTVYLQMNSIKPEDTAVYYCAADDGYTYYWAGYDSWGQGTQVSVSS | low polyreactivity
QVQLVESGGGLVQAGGSLRLSCAASGITFHRYAMRWYRQAPGKERELVAAINGGGGSTYYADSVKGRFTISRDNAKNTVYLQMNSLKPEDTAVYYCAAEVQNGVHIYDYWGQGTQVTVSS | high polyreactivity
QVQLVESGGGLVQAGGSLRLSCAASGITFIINAMGWYRQAPGKERELVAAISWRGGNTHYADSVKGRFTISRDYAKNTVYLQLNSLKAEVTAVYYCAARVTSRRDPDQKHGYWGQGTQVTVSS | high polyreactivity
QVQLVESGGGLVQAGGSLRLSCAASGITFIQYAMGWYRQAPGKERELVAAISSGGRTYYADSVKGRFTISRDNAKNTVYLQMNSLKPEDTAVYYCARDIQHYGGDSWGQGTQVTVSS | low polyreactivity
QVQLVESGGGLVQAGGSLRLSCAASGITFIRNAMGWYRQAPGKERELVAAISYRGGSTYYADSVKGRFTISRDNAKNTVYLQMNSLKPEDTAVYYCAAARKLDATTYYKFDYWGQGTQVTVSS | high polyreactivity
QVQLVESGGGLVQAGGSLRLSCAASGITFIRNAMGWYRQAPGKERELVAAISYRGGSTYYADSVKGRFTISRDNAKNTVYLQMNSLKPEDTAVYYCAAKRYGYKMYYWGQGTQVTVSS | high polyreactivity
QVQLVESGGGLVQAGGSLRLSCAASGITFISYAMGWYRQAPGKEMELVAAISSSGGRTYYADSVKGRFTISRDNAKNTVYLQMNSLKPEDTAVYYCAADGYPEYPRYGYWGQGTQVTVSS | high polyreactivity
QVQLVESGGGLVQAGGSLRLSCAASGITFIVNTMGWYRQAPGKEREFVATISANSDGTYYADSVKGRFTISRDIAKNTVYLQKNSLKPEDTAVYYWGQGTQVTVSS | low polyreactivity
QVQLVESGGGLVQAGGSLRLSCAASGITFIYYAMGWYRQAPGKERELVAAISRSGGSTYYADSVKGRFTISRDNAKNTVYLQMNSLKPEDTAVYYCAADGTKFSGRVTGDYWGQGTQVTVSS | high polyreactivity
QVQLVESGGGLVQAGGSLRLSCAASGITFIYYAMGWYRQAPGKERELVAAITWRGGSTYYADSVKGRFTISRDNAKYTVYLQMNSLKPEDTAVYYCNKGGISGRDYWGQGTQVTVSS | high polyreactivity
QVQLVESGGGLVQAGGSLRLSCAASGITFIYYHMGWYRQAPGKERELVAAINWSGGRTYYADSVKGRFTISRDNAKNTVYVQMNSLIPEDTAVYYCAADSWRPVYLGYYWGQGTQVTVSS | high polyreactivity
QVQLVESGGGLVQAGGSLRLSCAASGITFKDYAMGWYRQATGKERELVAVISYSGGSTYYADSVKGRFTISRDNAKNTVYLQMNSLKPEDTAVYYCAARVGPEYDWGQGTQVTVSS | low polyreactivity
QVQLVESGGGLVQAGGSLRLSCAASGITFKGNAMGWYRQAPGKERELVAAIRWRAGRTYYADSVKGRFTISRDNAKNTVYLQMNSLKPEDTAVYYCAAVGRYAYRRGSFLAYKSNYDYWGQGTQVTVSS | high polyreactivity
QVQLVESGGGLVQAGGSLRLSCAASGITFKGYTMGWYRQAPGKERELVATISRGGRTYADSVKGRFTISRDNAKNTVYLQMNSLKPEDTAVYYCAADKYWAQNDYWGQGTQVTVSS | low polyreactivity
QVQLVESGGGLVQAGGSLRLSCAASGITFKTYAMGWYRQAPGKERELVATINRGSRTNYADSVKGRFTISRDNAKNTVYLQMNSLKPEDTAVYYCAAHYTTFIPSPDGDYLGQGTQVTVSS | low polyreactivity
QVQLVESGGGLVQAGGSLRLSCAASGITFKYYAMGWYRQAPGKERELVAAISRGGTTSYADSVKGRFTISRDNAKNTVYLQMNSLKPEETAVYYCAAKYWWYPYFTVDYDYWGQGTQVTVSS | high polyreactivity
